This note sets out measurements from the RNAGym collection of RNA variant scans (doi:10.1073/pnas.2313332121).

The chains are these.
B1: TPR 5TU (parent)
chain: GGAUCUUCUCGAUCUAACAAAAAAGACAAAUCUGCCACAAAGCUUGAGAGCAUCUUCGGAUGCAGAGGCGGCAGCCUUCGGUGGCGCGAUAGCGCCAACGUUCUCAACUAUGACACGCAAAACGCGUGCUCCGUUGAAUGGAGUUUAUCAUG

Variants at the floor of the assay were thinned out. Bounds are passed on as bounds.

Variants of B1 are the subject of this data set. The data set is described as follows: polymerase ribozyme fitness, log enrichment relative to wild type (log ratio); higher = more active; in vitro selection for triplet polymerase activity. In outline:
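Only genotypes with ≥10 input reads and ≥1 read per output were kept after Illumina sequencing of input and output libraries. These libraries were PCR-built, transcribed mutants of each subunit of a heterodimeric triplet polymerase ribozyme, each put through one triplicate in vitro selection round with frozen incubation at −7 °C, gel excision of extended constructs, streptavidin-bead capture and RT-PCR. Fitness is a logarithmic ratio of genotype enrichment to wild-type enrichment, from inverse-variance-weighted replicate averages, with the logarithm in base 2.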
GGAUCUUCUCGAUCUAACAAAAAAGACAAAUCUGCCACAAAGCUUGAGAGCAUCUUCGGAUGCAGAGGCGGCAGCCUUCGGUGGCGCGAUAGCGUCAACGUUCUCAACUAUGACACGCAAAACGCGUGCUCCGUUGAAUGUAGUUUAUCAUG: the “polymerase ribozyme fitness (log ratio)” value was found to be 0.762.
The same measure for GGAUCUUCUCGAUCUAACAAAAAAGACAAAUCUGCCACAAAGCUUGAGAGCAUCUUCGGAUGCAGAGGCGGCAGCCUUCGGUGGGGCGAUAGCGCCAACGUUCUCAACUAUGACACGCAAAGCGCGUGCUCCGUUGAAUGGAGUUUAUAAUG: no more than -4.2; for GGAUCUUCUCGAUCUAACAAAAAAGACAAAUCUGCCACAAUGCUUGAGAGCAUCUUCGGAUGCAGAGGCGGCAGCCUUCGGCGGCGUGAUAGCGCCAACGUUCUCAACUAUGACACGCAAAACGGCUGCUCCGUUGAAUGGAGGUUAUCAUG: -2.6.
In the case of GGAUCUUCUCGAUCUAACAAAAAAGACAAAUCUGCCACAAAGCUUGAGAGCAUCUUCGGAUGCAGAGGCGGCUGCGUUCGGUGGCGCGAUAGCACCAACGUUCUCAACUAUGACACGCAAAACGCGUGCUCCGUUGAAUGGAGUUUAUCAUG, the “polymerase ribozyme fitness (log ratio)” value is no more than -4.2.
As to GGAUCUUCUCGAUCUAACAAAAAAGACAAAUCUGCCACAAAGCUUGAGAGCAUCUUCGGAUGCAGAGGCGGCAGCCUUCGGUGGCCCGAUAGCGCCAACGUUCUCAACUAUGACACGCAAAACGCUUGCUACGUUGAAUGGAGUUUAUCAUG, the “polymerase ribozyme fitness (log ratio)” value was no more than -4.2.
The same measure for GGAUUUUCUCGAUCUAACAAAAAAGACAAAUCUGCCAGAAAGCUUGAGAGCAUCUUCGGAUGCAGUGGCGGCAGCCUUCGGUGGCGCGAUAGCCCCAACGUUCUCAACUAUGACACGCAAAACGCGUGCUCCGUUGAAUGGAGUUUAUCAUG: no more than -4.2; for GGAUCUUCUCGAUCUAACAAAAAAGACAAAUCUGCCACAAAGCUUGAGAGCAUAUUGGGAUGCAGAGGCGGCAGCCUUCGGUGGCGUGAUAGCGCCAACGUUCUCAACUAUGACACGCAAAACGCGUGCUCCGUUGAAUGGAGUUUAUCGUG: -3.99; for GGAUCUUCUCGAUCUAACAAAAAAGACAAAUCUGCCACAAAGCUUGAGAGCAUCUUCGGAUGCAGAGGCGGCAGCCUUCGGUGGCGCGAUAGCGCGAACGUUCUCAACUAUGACACGCAAAUCGCGUGCUCCGUUGAAUGGAGUUUAUCAUG: -1.49.
Take GGAUCUUCUCGAUCUAACAAAAAAGACAAAGCUGCCACAAAGCUUGAGAGCCUCUUCGGAUGCAGAGGCGGCAGCCUUCGGUAGCGCGAUAGCGCCAACGUUCUCAACUAUGACACGCAAAACGCGUGCUCCGUUGAAUGGAGUUUAUCAUG: the “polymerase ribozyme fitness (log ratio)” value is -2.81.
In the case of GGAUCUUCUCGAUGUAACAAAAAAGACAAAUCUGCCACAAAGCUUGAGAGCAUCUUCGGAUGCAGAGGCGGCAGCCUUCGGUGGCGCGAUAGUGCCAACGUUCUCAACUAUGACACGCAAAACGCGUGCUCCGUUGAAUGGAGUUUAUCAUG, the “polymerase ribozyme fitness (log ratio)” value is -3.66.
The same measure for GGAUCUUCUCGAUCUAACAAAAAAGACAAAUCUGCCACAAAGCUUGAGAGCAUCUUCGGAUGCAGAGGCGGCAGCCUUCGGUGGCGCGAUAGCACCAACGUUCUCCACUAUGACACGCAAAACGCGUGCUCCGUUAAAUGGAGUUUAUCAUG: -0.404.
For GGAUCUUCUCGAUCUAACAAAAAAGACAAAUCUGCCACAAAGCUUGAGAGCAACUUCGGAUGCAGAGGCGGGAGCCUUCGGUGGUGCGAUAGCGCCAACGUUCUCAACUAUGACACGCAAAACGCGAGCUCCGUUGAAUGGAGUUUAUCAUG, the “polymerase ribozyme fitness (log ratio)” value is no more than -4.2.
With GGAUCUUCUCGAUCUAACAAAAAAGACAAAUCUGCCAUAAAGCUUGAGAGCAUCUUCGGAUGCAGAGGCGGCAGCCUUCGGUGGCGCGAUAGCGACAACGUUUUCAACUAUGACACGCAAAACGCGUGCUCCGUUGAAUGGAAUUUAUCAUG, the “polymerase ribozyme fitness (log ratio)” value was -3.18.
Regarding GGAUCUUCUCGAUCUAACAAAAAAGACAAAUCUGCCAGAAAGCUUGAGACCAUCUUCGGAUGCAUAGGCGGCAGCCUUCGGUGACGCGAUAGCGCUAAUGUUCUCAACUAGGACACGCAAAACGCGUGCUCCGUUGAAUGGAAUUUAUCAUG, the “polymerase ribozyme fitness (log ratio)” value is no more than -4.2.
The same measure for GGAUCUUCUCGAUCUAACAAAAAAGACAAAUCUGCCACAAAGCUUGAGAGCAUCUUCGUAUGCAGAGGCGGCAGCCUUCGGUGGCGCGAUAGCGCCAACGUUCUCAUCUAUGACACGCAAAACGCGAGCUCCGUUGAAUGGAGUUUAUCAUG: no more than -4.2.
The same measure for GGAUCUUCUCGAUCUAACAAAAAAGACAAAUCUGUCACACAGCUGGAGAACAUCUUCGGAUGCAGAGGCGGCAGCCUUCGGUGGCGCUAUGGCGCCAACGUUCUCAACUAUGACACGCAAAACGCGUGCUCCGUUGAAUCGAGUUUAUCAUG: no more than -4.2; for GGAUCUUCUCGAUCUUACAAAAAAGACAAAUCUGCCACAAAGCUUGAGAGCAUCUUCGGAUGCAGAGGCGACGGCCUUCGGUGGCGCGAUAGUGCCAACGUUCUCAACUAUGCCACGAAAAACGCGUGCUCCGUUGAAUAGAGUUUAUCAUG: no more than -4.2; for GGAUCUUCUCGAUCUAACAAAAAAGACAAAUCUGCCACUAAGCUUGAGAGCGUCUUCGGAAGCAGAGGCGGCUGCCUUCGGUGGCGCGAUAGCGCCAACGUUCUCAACUAUGACUCGCAAAACGCGUGCUCCGUUGAAUGGAGUUUAUCCUG: no more than -4.2.
Regarding GGAUCUUCUCGACCUAACAAAAAAGACAAAUCUGCCACAAAGCUUGAGAGCAUCUUCGGAUGCAGAGGCGGCAGCCUUCGGUGGCGCGAUAGCGCCAACGUUCUCAACUAUGACACGCAAAACGCGUGCUCCGUUGAAUGGAGUUUACCAUG, the “polymerase ribozyme fitness (log ratio)” value is -2.48.
With GGAUCUUCUCGAUCUAACAAAAAAGACAAAUCUGCCACAAAGCUUGAGAGCAUCUUCGGAUGCAGAGGCGGCAGCCUUCGGUGGCGCGAUAGCGCCAACGUUCUCAACUAUGACACUCAAAACGCGUGCUCCGUCGAAUGGAGUUUAUCAUG, the “polymerase ribozyme fitness (log ratio)” value was -2.36.
The same measure for GGAUCUUCUCGAUCUAACAAAAGAGACAAAUCUGCCACAAAGCUUGAGACCAUCUUCGGAUGCAGAGGCGGCAGCCUUCGGUGGCGCGAUAGCGCCAACGUUCUCAACUAUGACACGCAAAACGCGUGCUCCGUUGAAUGGAGUUUAUCAUG: -4.
For the variant GGAUCUUCUCGAUCUCACAAAAAAGACAAAUCUGCCACAAAGCUUGAGAGCAUCUUCGGAUGCAGAGGCGGCAGCCUUCGGUCGCGCGAUAGCGCCAACGUUCUCAACUAUGACACGCAAAACGCGUGCUCCGUUGAAUGGAGUUGACAAUG, the “polymerase ribozyme fitness (log ratio)” value is no more than -4.2.
For GGAUCUUCUCGAUGUAACAAAAAAGACAAAUCUGCCACAAAGCUUGAGAGCAUCUUCGGAUGCAGAGGCGGCAGCCUUCGGUAGCGCGAUAGCGCCAACGUUCUCAACUAUGACACGCAAAACGCGUGCUCCGUUGAAUGGAGUUUAUCAUG, the “polymerase ribozyme fitness (log ratio)” value was -2.42.
GGAUCUUCUCGAUCUAACAAAAAAGACAAAUCUGCCACAAAGCUUGAGAGCAUCUUCGGAUGCAGAGGCGGCAGCCUUCGGUGGCGCUAUAGCGCCAACGUUCUCAACUAUGACCCGCAGAACGCGUGCUCCGUUGAAUGGAGUUUAUCAUG: the “polymerase ribozyme fitness (log ratio)” value is -3.89.
GGAUCUUCUCGAUCUAACAAAAUAGACAAAUCUGCCACAAAGCUUGAGAGCAUCUUCGGAUGCAGAGGCGGCAGCCUUCGGUGGCGCGAUAGCGCUAACGUUCUCAACUAUGACACGCAAAACGCGCGCUCCGUUGAAUGGAGGUUAUCGUG: the “polymerase ribozyme fitness (log ratio)” value is no more than -4.2.
GGAUCUUCUCGAUCUAACAAAAAAGACAAAUCUGCCAUAAAGCUUGAGAGCAUAUUGGGAUGCAGAGGCGGCAGCCUUCGGUGGCGCGAUAGCGCCAACGUUCUCAACUAUGACACGCAAAACGCGUGCUCCGUUGAAUGGAAUUUAUCAUG: the “polymerase ribozyme fitness (log ratio)” value was -4.08.
GGAUCUUCUCGAUCUAACAAAAAAGACAAAUCUGCCACAAAGCUUGAGAGCAUCUUCGGAUGCAGAGGCGGCAGCUUUCGGUGGCGCGAUAGCGCCAACGUUCUCAACUAUGACACGCAAAACGCGUGCUCCGUUGAAUGGAGAUUAUCAUG: the “polymerase ribozyme fitness (log ratio)” value is -1.08.
For GGAUCUUCUCGAUCUAACAAAAAAGACAAAUCUGCCACAAAGUUUGAGAGCAUUUUCGGAAGCCGAGGCGGCAGCCUUCGGUGUCGCGAUAGCGCCAACGUUCUCAACUAUGACACGCAAAACGCGAGCUGCGUUGAAUGGGGUUUAUCAUG, the “polymerase ribozyme fitness (log ratio)” value was no more than -4.2.
The same measure for GGAUCUUCUCGAUCUAACAAAAAAGACAAAUCUGCCACAAAGCUUGAGAGCAUCUACGGAUGCAGAGGCGGCAGCCUUCGGUGGCGCGAGAGCGCCAACGUUCUCAACUAUGACACGCAAAACGCGUGCUCCGUUGAAUGGAGUUUAUCAUG: no more than -4.2; for GGAUCUUCUCGAUCUAACAAAAAAGACAAAUCUGCCACAAAGCUUGAGAGCAUCUUCGGAUGCAGAAGCGGCCGCCUUCGGUGGCGGGAUAGCGCCAACGUUCUCAACUAUGACACGCAAAACGCGUGCUCCGUUGAAUGGAGUUUAUCAUG: no more than -4.2; for GGAUCUUCUCGAUCUAACAAAAAAGACAAAUCUGCCACAAAGCUUGAGAGCAUGUUCGGAUGCAGAGGCGGCAGCCUUCGGUGGCGCGAUAGCACCAACGUUCUCAACUAUGACACGCAAAACGCGUGCUCCGUUGAAUGGAGUUUAUCAUG: -1.68.
Turning to GGAUCUUCUCGAUCUAACAAAAAAGACAAAUCUGCCACAACGCUUGAGAGCAACUUCGGAUGCAGAGGCGGCAGCCUUCGGUGGCGCGAUAUCGCCAACGUUCUCAACUAUGACACGCAAAACGCGUGCUCCGUUGAAUGGAGUUUAUCAUG, the “polymerase ribozyme fitness (log ratio)” value is -1.22.
Turning to GGAUCUUCUCGAUCUAACAAAAAAGACAAUUCUGCCACAAAGCUUUAGAGCAUCGUCGGAUGCAGAGGCGGCAGCCUUAGGUGGCGCGAUAGCGCCAACGGUCUCAAGUAUGACAUGCGAAACGCGUGCUCCGUUUAAUGGAGUUUAUCAUG, the “polymerase ribozyme fitness (log ratio)” value is no more than -4.2.
Consider GGAUCUUCUCGAUCUAACAAGAAAGACAAAUCUGCCACAAAGCUUGAGAUCAUCUUCGGAUGCAGAGGCGGCAGCCUUCGGUGGCGCGAUAUCGCCAACGUUCUCAACUAUGACACGCAAAACGCGUGCUCCGUUGAAUGGAGUUUCUCAUG, for which the “polymerase ribozyme fitness (log ratio)” value is -0.875.
Consider GGAUCUUCUCGAUCUAACAAAAAAGACAAAUCUGCCACAAAGCUUGAGAGCAUCUUCGGAUGCAGAGGCGGCAGCCUUCGGUGGCCCGAUAGCGCCAAUGUUCUCAACUAUGACACGCAAAACGCGUGCUCCGUUGAAUGGAGUUUAUCAUG, for which the “polymerase ribozyme fitness (log ratio)” value is -2.83.
In the case of GGAUCUUCUCGAUCUAACACAAAAGACAAAUCUGCCACAAAGCUUGAGAGCAUCUUCGGAUGCAGAGGCGGCAGCCUUCGGUGGCGCGAUAGCGCCAACGUUCUCAACUAUGACACGCAGAACGCGUGCUCCGUUGAAUGGAGUUUAUCAUG, the “polymerase ribozyme fitness (log ratio)” value is -0.986.
Regarding GGAUCUUCUCGAUCUAACAAAAAAGACAAAUCUGCCACAAAGCUUGAGAGCAUCUUCGGAUGCAGAAGCGGCAGCCUUCGGUGGCGAGAUAGCGCCAUCGUUCUCAACUAUGACACGCAAAACGCGUGCUCCGUUGAAUGGAGUUUAUCAUG, the “polymerase ribozyme fitness (log ratio)” value was no more than -4.2.
For the variant GGAUCUUCUCGAUCUAACAAAAAAGACAAAUCUGCCACGAAGCUUGAGAGCAUCAUCGGAUGCAGAGGCGGCAGGCUUCGGUGGCGUGUUAGCGCCAAUGUUCUCAACUAUGACAUGCAAAACGCGUGCUCCGUUGAAUGGUGUUUAUCAUG, the “polymerase ribozyme fitness (log ratio)” value was no more than -4.2.
